{"source": "patent US20070072177A1", "about": "(CRUCELL HOLLAND B V, published 2007)", "binders": {"B1": {"name": "CR04-010 (antibody, V domains shown)", "VH": "QVQLVESGGDLVQPGRSLRLSCAASGFTFSSYGMHWVRQAPGKGLEWVADISYDGSNKYYADSVKGRFTISRDNSKNTLYLQMNSLRAEDTAVYYCAKDGLDLTGTIQPFGYWGQGTLVTVSS", "VL": "AIQMTQSPSSLSASVGDRVTITCRASQGIRNDLGWYQQKPGKAPKLLIYAASSLQSGVPSRFSGSGSGTDFTLTISSLQPEDFATYYCLQDYNYPRTFGQGTKVEIKR"}, "B2": {"name": "CR57 (antibody, V domains shown)", "VH": "QVQLVQSGAEVKKPGSSVKVSCKASGGTFNRYTVNWVRQAPGQGLEWMGGIIPIFGTANYAQRFQGRLTITADESTSTAYMELSSLRSDDTAVYFCARENLDNSGTYYYFSGWFDPWGQGTLVTVSS", "VL": "QSALTQPRSVSGSPGQSVTISCTGTSSDIGGYNFVSWYQQHPGKAPKLMIYDATKRPSGVPDRFSGSKSGNTASLTISGLQAEDEADYYCCSYAGDYTPGVVFGGGTKLTVLG"}, "B3": {"name": "CRJB (antibody, V domains shown)", "VH": "QITLKETGPTLVKPTQTLTLTCTFSGFSLSTSGVGVGWIRQPPGKALEWVTLIYWDDDKRYSPSLENRVTIRKDTSKNQVALTMTNMDPLDTGTYYCAHRQHISSFPWFDSWGQGTLVTVSS", "VL": "SYVLTQPPSVSVAPGKTARINCGGNNIEYRSVHWYQQKSGQAPVAVIYDNSDRPSGIPERFSGSKSGNTATLTISRVEAGDEADYYCQVWDISSDVVFGGGTKLTVLG"}, "B4": {"name": "SC04-144 (scFv)", "scFv": "AMAQVQLQELGGGVVQPGRSLRLSCAASGFTFGSYGMHWVRQAPGKGLEWVATISYDGSIKDYADSEKGRFTISRDNSKNTLYLQMNSLRAEDTAVYYCAKGGKTGEFDYWGQGTLVTVSSGTGGSGGTGSGTGGSTDIQLTQSPSSLSASVGDRVTITCRASQGISSYLAWYQQKPGKGPKLLIYAASTLQSGVPSRFSGSGSGTDFSLTISSLQPEDLATYYCQQYDSYPLTFGGGTKVEIKRAAA"}, "B5": {"name": "SC04-146 (scFv)", "scFv": "AMAEVQLVQSGGGVVQPGRSLRLSCAASGFTFSSYGMHWVRQAPGKGLEWVATISYDGSIKDYADSEEGRFTISRDNSKNTLYLQMNSLRAEDTAVYYCAKGGKTGEFDYWGQGTLVTVSSGTGGSGGTGSGTGGSTDVVMTQSPATLSVSPGESATLFCRASESVYSNLAWYQHKPGRAPRLLIYGASTRATGIPARFDGTGSGTDFTLTISSLQSEDFAVYYCQQYNDWPITFGQGTRLEIKRAAA"}, "B6": {"name": "SC04-126 (scFv)", "scFv": "AMAQVTLKESGPTLVNPTQTLTLTCTFSGFSLSTGGVGVGWFRQPPGKALEWLARIDWDDDKYYSTSLKTRLTISKDTSKIQVVLTMTNMDPVDTATYYCARMGFTGTYFDYWGQGTLVTVSSGTGGSGGTGSGTGGSTQSVLTQPPSVSVAPGKTARITCGGNNIGSKSVHWYQQKPGQAPVLVIYYDSDRPSGIPERFSGSNSGNTATLTISRVEAGDEADYYCQVWDSSSDHPYVFGTGTKLTVLGAAA"}, "B7": {"name": "SC04-140 (scFv)", "scFv": "AMAQMQLVQSGGGVVQPGRSLRLSCAASGFTFSSYGMHWVRQAPGKGLEWVAVILYDGSNKYYADSVKGRFTISRDNSKNALYLQMNSLRAEDTAVYYCAKVTNPGDAFDIWGQGTMVTVSSGTGGSGGTGSGTGGSTDIQMTQSPSSLSASVGDRVTITCRASQGISSALAWYQQKPGKAPKLLIYDASSLESGVPSRFSGSGSGTDFTLTISSLQPEDFATYYCQQFNSYPLTFGGGTKVEIKRAAA"}, "B8": {"name": "SC04-108 (scFv)", "scFv": "AMAEVQLVQSGGGLVQPGGSLRLSCAASGFTFSSYGMHWVRQAPGKGLEWVAVILYDGSDKFYADSVKGRFTISRDNSKDTLYLQMNSLRAEDTAVYYCAKFMIVADDAFDIWGQGTMVTVSSGTGGSGGTGSGTGGSTDIQLTQSPSSLSASVGDRVTITCRASQGISSHLVWYQQKPGKAPKSLIYAASSLQSGVPSRFSGSESATDFTLTISSLQPEDFATYYCQQYYSYPITFGQGTRLEIKRAAA"}, "B9": {"name": "SC04-125 (scFv)", "scFv": "AMAQVQLVESGGGVVQPGRSLRLSCAASGFTFSSYGMHWVRQAPGKGLEWVAVISYDGSDKYYADSVKGRFTISRDNSKNTLYLQMNSLRAEDTAVYYCAKIATAGTGFDYWGQGTLVTVSSGTGGSGGTGSGTGGSTDIQMTQSPSSVSASVGDRVTITCRASQGISSYLAWYQQKPGKAPKLLIYDASSLESGVPSRFSGSGSGTEFTLTISSLQPDDFATYYCQQLNSYPLTFGGGTKVEIKRAAA"}, "B10": {"name": "SC04-120 (scFv)", "scFv": "AMAEVQLVQSGGGLVQPGRSLRLSCAASGFTFSTYGMHWVRQAPGKGLEWVATISYDGSIKDYADSEKGRFTISRDNSKNTLYLQMNSLRAEDTAVYYCAKGGKTGEFDYWGQGTLVTVSSGTGGSGGTGSGTGGSTDIQLTQSPSTLSASVGDRVTITCRASQGINSYLAWYQQEPGKAPKLLIYAASTLQSGVPSRFSGSGSGTEFTLTISSLQPEDFATYYCQQLNSYPFTFGPGTKVDIKRAAA"}, "B11": {"name": "CR04-098 (antibody, V domains shown)", "VH": "QVQLVESGGGAVQPGRSLRLSCAASGFTFSSYGMHWVRQAPGKGLEWVAVILYDGSDKFYADSVKGRFTISRDNSKNTLYLQMNSLRAEDTAVYYCAKVAVAGTHFDYWGQGTLVTVSS", "VL": "B1 VL with A1D, L89Q, D91L, Y92N, N93S, R96P, Q100G, R108T"}}, "note": "Positions count from the first letter of the chain named.", "data": [{"biological_target": "T1, rabies virus glycoprotein (G protein) of strain CVS-11 (rabies virus strain CVS-11, UniProt O92284 20-524)", "T1 sequence": "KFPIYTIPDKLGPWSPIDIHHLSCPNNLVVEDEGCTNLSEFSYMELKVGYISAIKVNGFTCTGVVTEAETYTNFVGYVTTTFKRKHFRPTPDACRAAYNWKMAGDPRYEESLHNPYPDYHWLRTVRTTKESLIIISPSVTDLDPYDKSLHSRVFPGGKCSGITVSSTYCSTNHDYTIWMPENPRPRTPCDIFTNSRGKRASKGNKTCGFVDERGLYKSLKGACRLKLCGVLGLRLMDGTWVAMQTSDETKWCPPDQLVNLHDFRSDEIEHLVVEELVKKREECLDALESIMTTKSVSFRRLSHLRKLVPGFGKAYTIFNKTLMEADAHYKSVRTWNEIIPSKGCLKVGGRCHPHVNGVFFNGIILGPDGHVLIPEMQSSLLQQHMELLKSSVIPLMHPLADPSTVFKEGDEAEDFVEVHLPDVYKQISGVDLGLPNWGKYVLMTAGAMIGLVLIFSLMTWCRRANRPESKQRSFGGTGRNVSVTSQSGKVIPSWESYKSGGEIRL", "assay": "cell-based or functional assay", "units": {"Neutralizing potency (modified RFFIT)": "IU/mg"}, "values": [{"binder": "B1", "Neutralizing potency (modified RFFIT)": 3000}, {"binder": "B2", "Neutralizing potency (modified RFFIT)": 3800}, {"binder": "B3", "Neutralizing potency (modified RFFIT)": 605}]}, {"biological_target": "T2, purified rabies virus glycoprotein (rabies virus ERA strain) (rabies virus strain ERA, UniProt P03524 20-524)", "assay": "phage ELISA on coated purified G protein (ERA), anti-M13-HRP", "units": {"OD 492 nm": "OD 492 nm"}, "values": [{"binder": "B4", "OD 492 nm": 0.775}, {"binder": "B5", "OD 492 nm": 0.484}, {"binder": "B6", "OD 492 nm": 0.232}, {"binder": "B7", "OD 492 nm": 0.865}, {"binder": "B8", "OD 492 nm": 0.363}, {"binder": "B9", "OD 492 nm": 0.735}, {"binder": "B10", "OD 492 nm": 0.571}]}, {"biological_target": "T2, purified rabies virus glycoprotein …", "assay": "SPR (BIAcore3000), ERA glycoprotein amine-coupled to CM5 chip, antibody injected", "units": {"Kd": "nM"}, "values": [{"binder": "B11", "Kd": 4.5}]}, {"biological_target": "T3, glycoprotein of rabies virus strain CVS-11 (rabies virus strain CVS-11, UniProt O92284 20-524)", "T3 sequence": "T1 sequence", "assay": "cell-based or functional assay", "units": {"Potency (IU/ml)": "IU/ml"}, "values": [{"binder": "B4", "Potency (IU/ml)": 6}, {"binder": "B5", "Potency (IU/ml)": 3}, {"binder": "B6", "Potency (IU/ml)": 0.1}, {"binder": "B7", "Potency (IU/ml)": 1}, {"binder": "B8", "Potency (IU/ml)": 1}, {"binder": "B9", "Potency (IU/ml)": 3}, {"binder": "B10", "Potency (IU/ml)": 6}]}]}
